# Target: Nhp2 (W);Cbf5;Nop10;Gar1 (Saccharomyces cerevisiae;Saccharomyces cerevisiae;Saccharomyces cerevisiae;Saccharomyces cerevisiae) (UniProt P33322+Q6Q547+P28007)
# Test: smFRET
# Settings: substrate RNA binding to the reconstituted H5 RNP; substrate is an analogue RNA; sequence as assayed not given; smFRET with immobilized 3'-biotin RNA; smFRET buffer not in the material (RNP reconstitution for activity assays: 12.5 mM Tris/HCl pH 8.0, 250 mM NaCl, 30 °C)
substance,measurement,value
H5 U61-donor snoRNA with acceptor-labeled H5 substrate RNA,binding signal (% of RNPs substrate bound),37

# Source: PMC8096250
